± gives the standard deviation of the averaged measurements.
B1: library; numbered along this chain (parent)
chain: MNIQIGELAKRTACPVVTIRFYEQEGLLPPPGRSRGNFRLYGEEHVERLQFIRHCRSLDMPLSDVRTLLSYRKRPDQDCGEVNMLLDEHIRQVESRIGALLELKHHLVELREACSGARPAQSCGILQGLSDCVCDTRGTTAHPSD

Tests used:
[1] = variants of: B1; test: sfGFP reporter fluorescence (15 h) (µM FITC); higher = higher leak; conditions: library round: Round 0; ligand: none
Outline: (§1)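 Values are endpoint sfGFP fluorescence given as µM FITC equivalents. Fluorescence was read at 485/528 nm on a Synergy Neo2, and FITC standard curves were prepared in 50 mM sodium borate pH 8.5. Reactions of 1 μL combined BL21 Star (DE3) PANOx-SP extract, pPbrR-sfGFP reporter, 30 μg/mL GamS and linear PbrR templates (PCR-made, Echo-normalized to 5 nM), with 1 µM lead chloride, 30 µM zinc acetate or no metal, for 15 hr at 30 °C.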

[2] = variants of: B1; test: sfGFP reporter fluorescence (15 h) (µM FITC); higher = stronger transcriptional activation; conditions: library round: Round 0
Outline: as §1

Row | Variant | sfGFP reporter fluorescence [1] | sfGFP reporter fluorescence ([2]; ligand: 1 µM Pb) | sfGFP reporter fluorescence ([2]; ligand: 30 µM Zn)
1 | L86A | 0.07 ± 0.0015 | 0.0647 ± 0.0018 | 0.0782 ± 0.0018
2 | Q92A | 0.0592 ± 0.0013 | 0.063 ± 0.0026 | 0.421 ± 0.042
3 | N83D | 0.0614 ± 0.0013 | 0.0607 ± 0.0013 | 1.003 ± 0.0065
4 | N83R | 0.0625 ± 0.00078 | 0.0775 ± 0.0065 | 0.0883 ± 0.0021
5 | N83Q | 0.06487 ± 0.00052 | 0.0693 | 1.55 ± 0.4
6 | N83A | 0.061 ± 0.0013 | 0.0867 ± 0.0065 | 0.1411 ± 0.001
7 | N83M | 0.06102 ± 0.00026 | 0.0768 ± 0.0023 | 0.06194 ± 0.00052
8 | N83T | 0.0607 ± 0.00078 | 0.0759 ± 0.0015 | 0.226 ± 0.047
9 | N83S | 0.0605 ± 0.0026 | 0.0775 ± 0.00078 | 0.333 ± 0.016
10 | N83Y | 0.0594 ± 0.0015 | 0.0762 ± 0.001 | 0.0645 ± 0.0015
11 | N83G | 0.0559 ± 0.00078 | 0.0748 ± 0.001 | 0.692 ± 0.13
12 | N83E | 0.0612 ± 0.001 | 0.0612 ± 0.0015 | 0.141 ± 0.0023
13 | N83W | 0.059 ± 0.0031 | 0.0748 ± 0.0042 | 0.0619
14 | N83P | 0.05772 ± 0.00026 | 0.0579 ± 0.001 | 0.0552 ± 0.0023
15 | N83C | 0.0601 ± 0.0021 | 0.114 ± 0.016 | 0.0649 ± 0.0015
16 | N83K | 0.0603 ± 0.0034 | 0.0663 ± 0.0015 | 0.07532 ± 0.00026
17 | N83I | 0.0561 ± 0.0015 | 0.0718 ± 0.001 | 0.055 ± 0.001
18 | N83F | 0.0588 ± 0.00078 | 0.07275 ± 0.00026 | 0.05882 ± 0.00026
19 | N83V | 0.0577 ± 0.0034 | 0.07623 ± 0.00052 | 0.0588 ± 0.0013
20 | N83H | 2.73 ± 0.37 | 2.63 ± 0.52 | 3.526 ± 0.0086
21 | N83L | 0.0585 ± 0.0018 | 0.07 ± 0.0088 | 0.0575 ± 0.0031
22 | H89Q | 0.0645 ± 0.0047 | 0.108 ± 0.0029 | 1.3 ± 0.08

Row | Variant | sfGFP reporter fluorescence [1] | sfGFP reporter fluorescence ([2]; ligand: 1 µM Pb) | sfGFP reporter fluorescence ([2]; ligand: 30 µM Zn)
23 | H89N | 0.0597 ± 0.001 | 0.0663 | 0.261 ± 0.015
24 | H89K | 0.0601 ± 0.0026 | 0.0599 ± 0.0013 | 0.161 ± 0.0036
25 | H89I | 0.0539 ± 0.0047 | 0.0537 ± 0.0018 | 0.0594 ± 0.0021
26 | H89Y | 0.0596 ± 0.0018 | 0.0574 ± 0.0018 | 0.0566 ± 0.0023
27 | H89M | 0.061 ± 0.0013 | 0.06359 ± 0.00026 | 0.1426 ± 0.00052
28 | H89L | 0.059 ± 0.0026 | 0.0553 ± 0.0021 | 0.0649 ± 0.0042
29 | H89A | 0.05992 ± 0.00026 | 0.05699 ± 0.00026 | 0.06725 ± 0.00026
30 | H89R | 0.0685 ± 0.0042 | 0.0936 ± 0.0054 | 0.975 ± 0.017
31 | H89C | 0.0553 ± 0.0015 | 0.0574 ± 0.0039 | 0.0614 ± 0.0034
32 | H89V | 0.0592 ± 0.0034 | 0.0575 ± 0.0021 | 0.05681 ± 0.00052
33 | H89E | 0.0647 ± 0.0023 | 0.0795 ± 0.0031 | 0.139 ± 0.0023
34 | H89G | 0.0559 ± 0.0044 | 0.05443 ± 0.00026 | 0.0577 ± 0.0023
35 | H89T | 0.0614 ± 0.00078 | 0.0579 ± 0.0021 | 0.0588 ± 0.0054
36 | H89S | 0.0572 ± 0.001 | 0.0579 ± 0.0031 | 0.0627 ± 0.001
37 | H89D | 0.0623 ± 0.0021 | 0.0669 ± 0.0044 | 0.08283 ± 0.00052
38 | H89P | 0.0566 ± 0.0029 | 0.05498 ± 0.00052 | 0.0564
39 | H89F | 0.0581 ± 0.0039 | 0.0566 ± 0.0039 | 0.063 ± 0.0021
40 | H89W | 0.0607 ± 0.0023 | 0.0585 ± 0.00078 | 0.06084 ± 0.00052
41 | I90P | 0.0574 ± 0.0029 | 0.0616 ± 0.0015 | 0.151 ± 0.0047
42 | I90N | 0.05717 ± 0.00052 | 0.0601 ± 0.0036 | 0.279 ± 0.012
43 | I90R | 0.0658 ± 0.0049 | 0.125 | 0.97 ± 0.025
44 | I90F | 0.0566 ± 0.0054 | 0.063 ± 0.0026 | 0.339 ± 0.033

Row | Variant | sfGFP reporter fluorescence [1] | sfGFP reporter fluorescence ([2]; ligand: 1 µM Pb) | sfGFP reporter fluorescence ([2]; ligand: 30 µM Zn)
45 | I90D | 0.0568 ± 0.0047 | 0.0561 ± 0.0015 | 0.085 ± 0.0057
46 | I90M | 0.0588 ± 0.0018 | 0.0625 ± 0.0018 | 0.384 ± 0.013
47 | I90A | 0.06249 ± 0.00026 | 0.0792 ± 0.0031 | 0.521 ± 0.0044
48 | I90E | 0.0579 ± 0.0042 | 0.05791 ± 0.00052 | 0.0977 ± 0.0018
49 | I90K | 0.0621 ± 0.0023 | 0.099 ± 0.0047 | 0.85 ± 0.061
50 | I90W | 0.0585 ± 0.0023 | 0.0619 ± 0.001 | 0.272 ± 0.0062
51 | I90S | 0.0601 ± 0.0031 | 0.0671 ± 0.0036 | 0.384 ± 0.0091
52 | I90V | 0.059 ± 0.0036 | 0.064 ± 0.00078 | 0.583 ± 0.015
53 | I90C | 0.0592 ± 0.0018 | 0.0656 ± 0.00052 | 0.568 ± 0.012
54 | I90L | 0.0559 ± 0.0029 | 0.0583 ± 0.0015 | 0.3539 ± 0.0034
55 | I90H | 0.0619 ± 0.0036 | 0.0898 ± 0.0021 | 0.755 ± 0.0078
56 | I90T | 0.0608 ± 0.0021 | 0.07953 ± 0.00052 | 0.595 ± 0.007
57 | I90Q | 0.05974 ± 0.00052 | 0.0737 ± 0.0042 | 0.637 ± 0.052
58 | I90Y | 0.0608 ± 0.0026 | 0.108 ± 0.0023 | 0.9855 ± 0.0052
59 | I90G | 0.0535 ± 0.0031 | 0.0577 ± 0.00078 | 0.222 ± 0.0086
60 | E81A | 0.0612 ± 0.001 | 0.0792 ± 0.0047 | 0.655 ± 0.13
61 | G80A | 0.0577 ± 0.0029 | 0.0649 ± 0.0073 | 0.526 ± 0.039
62 | L100A | 0.0803 ± 0.0015 | 0.131 ± 0.0044 | 0.663 ± 0.2
63 | I97F | 0.0535 ± 0.0042 | 0.0592 ± 0.0029 | 0.278 ± 0.036
64 | I97C | 0.0601 ± 0.0015 | 0.0702 ± 0.0065 | 0.761 ± 0.036
65 | I97M | 0.0574 ± 0.0023 | 0.057 ± 0.0023 | 0.2807 ± 0.00052
66 | I97W | 0.0585 ± 0.006 | 0.0616 ± 0.0015 | 0.176 ± 0.0073

Row | Variant | sfGFP reporter fluorescence [1] | sfGFP reporter fluorescence ([2]; ligand: 1 µM Pb) | sfGFP reporter fluorescence ([2]; ligand: 30 µM Zn)
67 | I97A | 0.0663 ± 0.0021 | 0.133 ± 0.0015 | 1.138 ± 0.007
68 | I97T | 0.0579 ± 0.0042 | 0.0662 ± 0.0034 | 0.579 ± 0.0096
69 | I97R | 0.0577 ± 0.0054 | 0.0564 ± 0.0015 | 0.116 ± 0.0013
70 | I97K | 0.0607 ± 0.0029 | 0.0597 ± 0.0021 | 0.102 ± 0.006
71 | I97G | 0.0555 ± 0.0013 | 0.0603 ± 0.0013 | 0.404 ± 0.014
72 | I97N | 0.0566 ± 0.0029 | 0.0603 ± 0.0039 | 0.325 ± 0.0065
73 | I97L | 0.0596 ± 0.0023 | 0.0797 ± 0.0044 | 0.842 ± 0.014
74 | I97S | 0.0592 ± 0.0039 | 0.0722 ± 0.0015 | 0.554 ± 0.0062
75 | I97Y | 0.0603 ± 0.0034 | 0.0825 ± 0.0026 | 0.721 ± 0.031
76 | I97V | 0.0563 ± 0.0023 | 0.0605 ± 0.0026 | 0.338 ± 0.015
77 | I97Q | 0.057 ± 0.0029 | 0.057 ± 0.0034 | 0.287 ± 0.0088
78 | I97P | 0.0542 ± 0.0036 | 0.0561 ± 0.001 | 0.135 ± 0.0036
79 | I97D | 0.0596 ± 0.0044 | 0.0575 ± 0.001 | 0.193 ± 0.0054
80 | I97E | 0.0574 ± 0.0044 | 0.0618 ± 0.0018 | 0.386 ± 0.055
81 | I97H | 0.0564 ± 0.0062 | 0.0596 ± 0.0034 | 0.263 ± 0.0018
82 | R96A | 0.0564 | 0.07495 ± 0.00026 | 0.294 ± 0.0083
83 | R91A | 0.0618 ± 0.00078 | 0.0724 ± 0.0029 | 0.6942 ± 0.0015
84 | E94L | 0.0579 ± 0.0021 | 0.0698 ± 0.0075 | 0.583 ± 0.006
85 | E94M | 0.0581 ± 0.0018 | 0.0726 ± 0.0047 | 0.598 ± 0.031
86 | E94H | 0.0592 ± 0.0029 | 0.0632 ± 0.0023 | 0.344 ± 0.021
87 | E94C | 0.0645 ± 0.0021 | 0.115 ± 0.011 | 0.946 ± 0.18
88 | E94S | 0.0674 ± 0.0036 | 0.132 ± 0.0031 | 1.51 ± 0.013

Reference: the supplement of paper PMC12783771
